Test results published in IntAct's records for PubMed 24980795.

B1: Spindle-defective protein 2 (Caenorhabditis elegans), P91870 (parent)
chain: MEDDAPMNLCNEQFEEIEDSPIDDNDNESFYNADGDVELEEEEVHETPKNFKNGGRFKTNMTNPKVNDLTTIEEKNEDLRSAASSRSASRPASVMSDKSFSSQFEFQSGGENAIEEYTNQVFADENKADLLFPETSKFMNGASPPKDKHHSWEPSIHHYDKQPPPDIQTNSPVFGNLNHRKNKLIPQARAKPGANDNEIVERDNDENVPTTSDKSAFITSPMNSTNHDEKTSTPKRPTNRKIGQYQGPNFDLSSIYVGSPQHQNTSISTGQQMPTSSYSHAHSETMMTNQTINESMVRRVLNGNNKNQDLFAALEEARKRRAAQPSKPDFRINTTRTRVPIKPTSARHSGNVVSSTSNDNTTAASSKDLTTSRKAMETFRQNASMADATNSNTASMTSILSTISTARTDISRSSRNHGGGFSNTSVSTVIPANNGNVSLSHGRDGRDSVSSVRTMSRASSTSTVYAGSTFSGVSKPLRIHAKRVAFGCVAVGETLRVEVEVENISDRQCLVRASTDSTTPVYQILDNKLTMVDPKKSIKFQVSFSPSSVGRYQVIMSIEVPAQNFIHKIPMWGNGGIAKFVPTSPDLQQTINQSEYAMCTSCAKRISFKISNSAGTRDGFAMIKVFDSAMRQLPDGCVAFFPAPGFIVKKKSDKRVDIRIDSSYIDLHDENNFRTSSSLSTASTTSSFQRRILPGAKFFVHVVWGEETMRTRLRLLEVRTGQHQLIDGHDFTSFQFSDEEVLRAVPVGFPAIKPEDRDLFAASYRSFFINFFTSTTEFRAATSRKKKEICSNDDSTLLETTAFRNQTFVNDVTIVPNTRFSNRK
partner: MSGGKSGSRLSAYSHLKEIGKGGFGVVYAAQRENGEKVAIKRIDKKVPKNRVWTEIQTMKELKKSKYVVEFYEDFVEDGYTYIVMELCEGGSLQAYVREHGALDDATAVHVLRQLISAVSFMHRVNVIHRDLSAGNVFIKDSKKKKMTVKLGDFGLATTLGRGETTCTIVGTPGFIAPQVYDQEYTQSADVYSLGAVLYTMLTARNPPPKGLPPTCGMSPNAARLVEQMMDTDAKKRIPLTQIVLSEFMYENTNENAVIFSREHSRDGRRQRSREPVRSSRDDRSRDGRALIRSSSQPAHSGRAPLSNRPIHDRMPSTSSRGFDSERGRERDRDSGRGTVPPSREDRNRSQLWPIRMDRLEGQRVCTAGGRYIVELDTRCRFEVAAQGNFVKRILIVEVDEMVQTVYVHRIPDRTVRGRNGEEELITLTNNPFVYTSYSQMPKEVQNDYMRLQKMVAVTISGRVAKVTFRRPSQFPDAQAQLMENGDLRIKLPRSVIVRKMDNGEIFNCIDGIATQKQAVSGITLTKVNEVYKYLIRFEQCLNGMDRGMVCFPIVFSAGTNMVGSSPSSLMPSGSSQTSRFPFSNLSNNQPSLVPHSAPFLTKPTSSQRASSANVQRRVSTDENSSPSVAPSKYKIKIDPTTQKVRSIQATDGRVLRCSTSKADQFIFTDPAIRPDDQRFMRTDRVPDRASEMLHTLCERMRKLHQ
B2: Probable serine/threonine-protein kinase zyg-1 (Caenorhabditis elegans), Q9GT24 (parent)
chain: B1 partner
partner: B1 chain
B3: Serine/threonine-protein kinase PLK4 (Mus musculus), Q64702-1 (parent)
chain: MAACIGERIEDFKVGNLLGKGSFAGVYRAESIHTGLEVAIKMIDKKAMYKAGMVQRVQNEVKIHCQLKHPSVLELYNYFEDNNYVYLVLEMCHNGEMNRYLKNRMKPFSEREARHFMHQIITGMLYLHSHGILHRDLTLSNILLTRNMNIKIADFGLATQLNMPHEKHYTLCGTPNYISPEIATRSAHGLESDIWSLGCMFYTLLIGRPPFDTDTVKNTLNKVVLADYEMPAFLSREAQDLIHQLLRRNPADRLSLSSVLDHPFMSRNPSPKSKDVGTVEDSMDSGHATLSTTITASSGTSLSGSLLDRRLLVGQPLPNKITVFQKNKNSSDFSSGDGSNFCTQWGNPEQEANSRGRGRVIEDAEERPHSRYLRRAHSSDRASPSNQSRAKTYSVERCHSVEMLSKPRRSLDENQHSSNHHCLGKTPFPFADQTPQMEMVQQWFGNLQMNAHLGETNEHHTVSPNRDFQDYPDLQDTLRNAWTDTRASKNADTSANVHAVKQLSAMKYMSAHHHKPEVMPQEPGLHPHSEQSKNRSMESTLGYQKPTLRSITSPLIAHRLKPIRQKTKKAVVSILDSEEVCVELLRECASEGYVKEVLQISSDGTMITVYYPNDGRGFPLADRPPLPTDNISRYSFDNLPEKYWRKYQYASRFIQLVRSKTPKITYFTRYAKCILMENSPGADFEVWFYDGAKIHKTENLIHIIEKTGISYNLKNENEVTSLKEEVKVYMDHANEGHRICLSLESVISEEEKRSRGSSFFPIIVGRKPGNTSSPKALSAPPVDPSCCKGEQASASRLSVNSAAFPTQSPGLSPSTVTVEGLGHTATATGTGVSSSLPKSAQLLKSVFVKNVGWATQLTSGAVWVQFNDGSQLVVQAGVSSISYTSPDGQTTRYGENEKLPEYIKQKLQCLSSILLMFSNPTPNFQ

Variants of: B1
Conditions: with zyg1_caeel zyg-1, Q9GT24

effect of a mutation on the interaction	Variant
disrupting interaction strength	E12K;E15K;E16K;E18K;D19K
disrupting interaction strength	E38K;E40K;E41K;E42K;E43K

Variants of: B1
Conditions: with zyg1_caeel zyg-1, Q9GT24
Remark: another data set of the same source

effect of a mutation on the interaction	Variant
decreasing interaction strength	D26K;E28K;D34K;D36K
decreasing interaction strength	E38K;E40K;E41K;E42K;E43K

Variants of: B2
Conditions: with spd2_caeel spd-2, P91870

Variant	effect of a mutation on the interaction
K454E	decreasing interaction strength
R471E	decreasing interaction strength
R463E	disrupting interaction strength
R470E	decreasing interaction strength
R470E;R471E	disrupting interaction strength

Results, then the variant that gave them:

effect of a mutation on the interaction	Variant
disrupting interaction strength	K500E
disrupting interaction strength	R489E;K491E

Variants of: B3
Conditions: with Cep192, E9Q4Y4
Chain of Cep192, E9Q4Y4 (E9Q4Y4 entry or part of it): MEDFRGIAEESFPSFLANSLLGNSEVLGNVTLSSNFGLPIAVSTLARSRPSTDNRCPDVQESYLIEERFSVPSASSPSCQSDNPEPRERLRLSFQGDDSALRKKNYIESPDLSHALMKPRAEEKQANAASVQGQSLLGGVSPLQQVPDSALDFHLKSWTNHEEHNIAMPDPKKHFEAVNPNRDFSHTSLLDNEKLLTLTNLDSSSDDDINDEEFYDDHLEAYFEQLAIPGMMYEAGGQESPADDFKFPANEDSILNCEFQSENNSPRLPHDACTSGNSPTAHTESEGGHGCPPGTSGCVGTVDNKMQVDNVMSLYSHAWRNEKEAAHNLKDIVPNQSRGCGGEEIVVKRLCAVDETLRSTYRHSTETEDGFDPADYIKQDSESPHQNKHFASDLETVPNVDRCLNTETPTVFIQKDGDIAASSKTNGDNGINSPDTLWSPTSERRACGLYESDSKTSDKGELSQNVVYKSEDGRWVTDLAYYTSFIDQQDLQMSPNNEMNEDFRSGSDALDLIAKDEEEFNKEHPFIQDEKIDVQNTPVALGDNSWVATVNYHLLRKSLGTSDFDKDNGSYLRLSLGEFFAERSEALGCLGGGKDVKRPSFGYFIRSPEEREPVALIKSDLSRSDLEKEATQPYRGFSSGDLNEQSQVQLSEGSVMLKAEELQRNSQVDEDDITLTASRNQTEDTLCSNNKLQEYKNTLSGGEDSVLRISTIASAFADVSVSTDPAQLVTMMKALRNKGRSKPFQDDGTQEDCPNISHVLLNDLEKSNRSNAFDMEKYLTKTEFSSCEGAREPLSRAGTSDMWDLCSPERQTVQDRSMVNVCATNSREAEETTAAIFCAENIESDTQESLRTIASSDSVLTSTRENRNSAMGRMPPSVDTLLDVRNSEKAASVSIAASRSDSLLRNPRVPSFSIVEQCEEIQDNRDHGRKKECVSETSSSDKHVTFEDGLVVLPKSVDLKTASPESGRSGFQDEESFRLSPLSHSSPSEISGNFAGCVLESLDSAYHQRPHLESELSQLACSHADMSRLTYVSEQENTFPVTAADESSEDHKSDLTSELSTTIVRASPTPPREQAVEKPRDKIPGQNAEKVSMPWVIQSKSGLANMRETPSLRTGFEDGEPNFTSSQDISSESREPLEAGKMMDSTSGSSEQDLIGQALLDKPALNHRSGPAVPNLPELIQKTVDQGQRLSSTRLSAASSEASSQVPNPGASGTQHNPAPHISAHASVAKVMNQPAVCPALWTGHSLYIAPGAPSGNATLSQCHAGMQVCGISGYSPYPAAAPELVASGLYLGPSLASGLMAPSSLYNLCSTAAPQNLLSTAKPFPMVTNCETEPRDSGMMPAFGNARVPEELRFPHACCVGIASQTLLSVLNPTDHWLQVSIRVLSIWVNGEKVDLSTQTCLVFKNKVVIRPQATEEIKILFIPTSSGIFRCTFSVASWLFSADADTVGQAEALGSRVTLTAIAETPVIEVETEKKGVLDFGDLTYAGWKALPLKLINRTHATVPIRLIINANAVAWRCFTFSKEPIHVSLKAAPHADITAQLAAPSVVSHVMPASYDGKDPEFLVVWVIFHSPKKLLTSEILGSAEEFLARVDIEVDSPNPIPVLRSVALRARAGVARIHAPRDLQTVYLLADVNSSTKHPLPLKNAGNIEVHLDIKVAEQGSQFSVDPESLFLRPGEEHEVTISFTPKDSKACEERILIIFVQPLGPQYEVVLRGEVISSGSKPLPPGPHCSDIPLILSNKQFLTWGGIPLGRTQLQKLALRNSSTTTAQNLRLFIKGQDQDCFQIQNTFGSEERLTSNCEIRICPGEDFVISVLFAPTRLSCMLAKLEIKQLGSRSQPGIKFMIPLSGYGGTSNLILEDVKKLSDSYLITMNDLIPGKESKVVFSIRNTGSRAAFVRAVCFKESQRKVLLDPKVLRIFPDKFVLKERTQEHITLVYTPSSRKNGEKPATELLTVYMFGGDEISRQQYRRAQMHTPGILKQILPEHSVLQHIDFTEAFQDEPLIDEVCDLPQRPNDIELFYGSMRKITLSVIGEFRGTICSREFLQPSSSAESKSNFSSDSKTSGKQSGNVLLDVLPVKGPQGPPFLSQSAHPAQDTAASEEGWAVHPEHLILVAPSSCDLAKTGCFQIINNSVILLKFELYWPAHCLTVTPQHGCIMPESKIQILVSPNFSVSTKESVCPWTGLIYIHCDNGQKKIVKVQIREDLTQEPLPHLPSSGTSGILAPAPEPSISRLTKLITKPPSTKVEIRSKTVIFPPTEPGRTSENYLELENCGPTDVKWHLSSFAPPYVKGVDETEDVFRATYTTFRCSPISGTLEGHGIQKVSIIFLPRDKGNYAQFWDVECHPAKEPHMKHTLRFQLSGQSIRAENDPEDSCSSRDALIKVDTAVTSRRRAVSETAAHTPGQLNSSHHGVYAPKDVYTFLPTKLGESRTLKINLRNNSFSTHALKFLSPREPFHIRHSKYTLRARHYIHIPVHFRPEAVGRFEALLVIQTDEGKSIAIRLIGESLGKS

effect of a mutation on the interaction	Variant
decreasing interaction strength	K672E
increasing interaction strength	R564E;K566E
increasing interaction strength	K660E
decreasing interaction strength	K693E
decreasing interaction strength	R766E;K767E

Variants of: B3
Conditions: with ce152_mouse Cep152, A2AUM9
Chain of ce152_mouse Cep152, A2AUM9 (A2AUM9 whole entry): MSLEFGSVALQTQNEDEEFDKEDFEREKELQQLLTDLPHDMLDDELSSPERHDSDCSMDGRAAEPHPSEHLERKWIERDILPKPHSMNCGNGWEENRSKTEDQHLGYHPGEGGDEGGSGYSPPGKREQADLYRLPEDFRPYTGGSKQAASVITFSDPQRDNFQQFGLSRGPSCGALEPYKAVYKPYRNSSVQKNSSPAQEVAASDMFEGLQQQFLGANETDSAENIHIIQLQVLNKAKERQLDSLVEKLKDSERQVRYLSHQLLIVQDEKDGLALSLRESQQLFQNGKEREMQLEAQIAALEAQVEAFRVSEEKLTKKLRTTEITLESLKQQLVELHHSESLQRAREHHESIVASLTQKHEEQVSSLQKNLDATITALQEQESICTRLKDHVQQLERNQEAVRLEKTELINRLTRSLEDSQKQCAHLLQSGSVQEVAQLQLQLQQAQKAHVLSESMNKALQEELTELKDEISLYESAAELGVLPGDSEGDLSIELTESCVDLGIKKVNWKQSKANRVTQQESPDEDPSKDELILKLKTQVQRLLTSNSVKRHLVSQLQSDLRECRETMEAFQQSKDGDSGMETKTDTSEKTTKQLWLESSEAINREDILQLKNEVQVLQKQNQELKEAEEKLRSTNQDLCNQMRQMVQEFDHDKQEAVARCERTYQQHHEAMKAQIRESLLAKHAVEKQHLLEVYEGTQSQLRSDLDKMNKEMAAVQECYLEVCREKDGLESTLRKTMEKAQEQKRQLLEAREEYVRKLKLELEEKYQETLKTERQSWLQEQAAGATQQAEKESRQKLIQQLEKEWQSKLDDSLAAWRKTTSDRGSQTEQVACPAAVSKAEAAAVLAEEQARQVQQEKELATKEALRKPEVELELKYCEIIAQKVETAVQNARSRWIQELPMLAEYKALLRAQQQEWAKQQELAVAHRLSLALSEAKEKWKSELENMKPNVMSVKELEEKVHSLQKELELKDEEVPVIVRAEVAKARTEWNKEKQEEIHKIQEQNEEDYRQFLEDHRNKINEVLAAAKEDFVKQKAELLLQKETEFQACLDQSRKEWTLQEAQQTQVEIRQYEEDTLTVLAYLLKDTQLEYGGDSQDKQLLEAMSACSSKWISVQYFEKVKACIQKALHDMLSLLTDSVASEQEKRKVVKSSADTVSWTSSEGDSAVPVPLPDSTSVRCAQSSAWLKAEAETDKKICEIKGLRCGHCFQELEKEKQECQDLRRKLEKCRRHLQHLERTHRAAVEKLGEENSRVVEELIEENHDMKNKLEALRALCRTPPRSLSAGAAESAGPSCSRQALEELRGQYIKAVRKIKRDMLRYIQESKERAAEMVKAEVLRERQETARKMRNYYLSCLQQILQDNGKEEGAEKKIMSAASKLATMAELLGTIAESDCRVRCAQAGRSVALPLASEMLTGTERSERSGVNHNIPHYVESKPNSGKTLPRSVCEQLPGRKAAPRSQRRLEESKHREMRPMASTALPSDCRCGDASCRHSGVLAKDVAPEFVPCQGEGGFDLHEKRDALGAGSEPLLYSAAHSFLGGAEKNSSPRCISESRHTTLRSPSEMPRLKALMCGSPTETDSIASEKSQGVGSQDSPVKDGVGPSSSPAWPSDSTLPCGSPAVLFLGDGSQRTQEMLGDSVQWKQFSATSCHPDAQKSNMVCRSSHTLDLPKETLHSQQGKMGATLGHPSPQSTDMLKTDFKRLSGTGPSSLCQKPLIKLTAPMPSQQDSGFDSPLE

effect of a mutation on the interaction	Variant
decreasing interaction strength	K672E
decreasing interaction strength	K660E
decreasing interaction strength	R652E
decreasing interaction strength	K693E
increasing interaction strength	K568E;K569E
decreasing interaction strength	R766E;K767E
